We go through six compounds from patent publication US10967068B2, “Stability-modulating linkers for use with antibody drug conjugates” (priority 2014, dated 2021).

The data set is described as follows: In Vitro Stability Assay—Mouse Plasma. The note with it: for Conjugate stability (%): % DAR remaining after plasma 3 or 4.5 days; for DAR: before plasma incubation. In kind it is in vitro ADME.

*1 amine or outer side, *2 acyl side, *3 side chain or, on linkers, in order; H or OH if unused. Where a SMILES comes first, the peptide text is derived from it. [ ]: non-standard residue; d: D form. The star is where a group is joined. Dolaproine = CO[C@@H]([C@@H]1CCCN1)[C@@H](C)C(=O)O; Acetyl(2-(4-imidazolyl)) = O=C(Cc1c[nH]cn1)*; Dil = CC[C@H](C)[C@H](NC)[C@@H](CC(=O)O)OC; Imidazole4carbonyl = O=C(c1cnc[nH]1)*; PABC = O=C(OCc1ccc(N[*:1])cc1)[*:2]; Doe = c1ccc(C[C@H](N*)c2nccs2)cc1; Cit = NC(=O)NCCC[C@H](N)C(=O)O; Isobutyryl = CC(C)C(=O)*; PhAc = O=C(Cc1ccccc1)*; Aib = CC(C)(N)C(=O)O; Piv = CC(C)(C)C(=O)*; Glycolyl = O=C(CO)*

Protocol: 100-200 ug of ADC were incubated in mouse plasma (provided by Bioreclamation) supplemented with 1×PBS to the final ADC concentration of 0.125 mg/mL. Following incubation for 3-7 days, samples were diluted with an equal volume of 1×PBS, and ADCs were isolated using Trop2 antigen coupled to CNBr-activated Sepharose (GE Healthcare) using standard protocols. Drug-antibody ratios were assessed before and after in vitro exposure using HIC methods and mass spectrometry.
DAR values for conjugates purified after plasma incubation were compared to DAR values prior to plasma treatment.

With `CC[C@H](C)[C@@H]([C@@H](CC(=O)N1CCC[C@H]1[C@H](OC)[C@@H](C)C(=O)N[C@@H](Cc1ccccc1)c1nccs1)OC)N(C)C(=O)[C@@H](NC(=O)C(C)(C)NC(=O)OCc1ccc(NC(=O)[C@H](CCCNC(N)=O)NC(=O)[C@@H](NC(=O)[C@H](CCCCN)NC(=O)C(C)(C)C)C(C)C)cc1)C(C)C` [Example 2, N˜2˜-(2,2-Dimethylpropanoyl)-L-lysyl-L-valyl-N-{4-[(8S,11S,12R)-11-[(2S)-butan-2-yl]-12-(2-{(2S)-2-[(1R,2R)-1-methoxy-2-methyl-3-oxo-3-{[(1S)-2-phenyl-1-(1,3-thiazol-2-yl)ethyl]amino}propyl]pyrrolidin-1-yl}-2-oxoethyl)-5,5,10-trimethyl-3,6,9-trioxo-8-(propan-2-yl)-2,13-dioxa-4,7,10-triazatetradec-1-yl]phenyl}-N˜5˜-carbamoyl-L-ornithinamide] (Piv-KV[Cit][PABC][Aib]V[Dil][Dolaproine]-Doe), for the setting “attachment position L11B”, the “DAR after plasma incubation for 3 to 4.5 days” value (“DAR after plasma incubation” for short) turned out to be 0, the “Conjugate stability (%)” value is 0% and the DAR amounted to 1.54.
For `CC[C@H](C)[C@@H]([C@@H](CC(=O)N1CCC[C@H]1[C@H](OC)[C@@H](C)C(=O)N[C@@H](Cc1ccccc1)c1nccs1)OC)N(C)C(=O)[C@@H](NC(=O)C(C)(C)NC(=O)OCc1ccc(NC(=O)[C@H](CCCNC(N)=O)NC(=O)[C@@H](NC(=O)[C@H](CCCCN)NC(=O)Cc2ccccc2)C(C)C)cc1)C(C)C` [Example 3, N˜2˜-(Phenylacetyl)-L-lysyl-L-valyl-N-{4-[(8S,11S,12R)-11-[(2S)-butan-2-yl]-12-(2-{(2S)-2-[(1R,2R)-1-methoxy-2-methyl-3-oxo-3-{[(1S)-2-phenyl-1-(1,3-thiazol-2-yl)ethyl]amino}propyl]pyrrolidin-1-yl}-2-oxoethyl)-5,5,10-trimethyl-3,6,9-trioxo-8-(propan-2-yl)-2,13-dioxa-4,7,10-triazatetradec-1-yl]phenyl}-N˜5˜-carbamoyl-L-ornithinamide] (PhAc-KV[Cit][PABC][Aib]V[Dil][Dolaproine]-Doe), in that order: 0, 0% and 1.66.
For `CC[C@H](C)[C@@H]([C@@H](CC(=O)N1CCC[C@H]1[C@H](OC)[C@@H](C)C(=O)N[C@@H](Cc1ccccc1)c1nccs1)OC)N(C)C(=O)[C@@H](NC(=O)C(C)(C)NC(=O)OCc1ccc(NC(=O)[C@H](CCCNC(N)=O)NC(=O)[C@@H](NC(=O)[C@H](CCCCN)NC(=O)c2cnc[nH]2)C(C)C)cc1)C(C)C` [Example 4, N˜2˜-(1H-Imidazol-5-ylcarbonyl)-L-lysyl-L-valyl-N-{4-[(8S,11S,12R)-11-[(2S)-butan-2-yl]-12-(2-{(2S)-2-[(1R,2R)-1-methoxy-2-methyl-3-oxo-3-{[(1S)-2-phenyl-1-(1,3-thiazol-2-yl)ethyl]amino}propyl]pyrrolidin-1-yl}-2-oxoethyl)-5,5,10-trimethyl-3,6,9-trioxo-8-(propan-2-yl)-2,13-dioxa-4,7,10-triazatetradec-1-yl]phenyl}-N˜5˜-carbamoyl-L-ornithinamide] (Imidazole4carbonyl-KV[Cit][PABC][Aib]V[Dil][Dolaproine]-Doe), under “attachment position H16”, the “DAR after plasma incubation” value stood at 1.89, the “Conjugate stability (%)” value is 100% and the DAR was determined as 1.84.
For `CC[C@H](C)[C@@H]([C@@H](CC(=O)N1CCC[C@H]1[C@H](OC)[C@@H](C)C(=O)N[C@@H](Cc1ccccc1)c1nccs1)OC)N(C)C(=O)[C@@H](NC(=O)C(C)(C)NC(=O)OCc1ccc(NC(=O)[C@H](CCCNC(N)=O)NC(=O)[C@@H](NC(=O)[C@H](CCCCN)NC(=O)Cc2cnc[nH]2)C(C)C)cc1)C(C)C` [Example 5, N˜2˜-(1H-Imidazol-5-ylacetyl)-L-lysyl-L-valyl-N-{4-[(8S,11S,12R)-11-[(2S)-butan-2-yl]-12-(2-{(2S)-2-[(1R,2R)-1-methoxy-2-methyl-3-oxo-3-{[(1S)-2-phenyl-1-(1,3-thiazol-2-yl)ethyl]amino}propyl]pyrrolidin-1-yl}-2-oxoethyl)-5,5,10-trimethyl-3,6,9-trioxo-8-(propan-2-yl)-2,13-dioxa-4,7,10-triazatetradec-1-yl]phenyl}-N˜5˜-carbamoyl-L-ornithinamide] ({Acetyl(2-(4-imidazolyl))}-KV[Cit][PABC][Aib]V[Dil][Dolaproine]-Doe), in that order: 2.0, 100% and 1.96.
`CC[C@H](C)[C@@H]([C@@H](CC(=O)N1CCC[C@H]1[C@H](OC)[C@@H](C)C(=O)N[C@@H](Cc1ccccc1)c1nccs1)OC)N(C)C(=O)[C@@H](NC(=O)C(C)(C)NC(=O)OCc1ccc(NC(=O)[C@H](CCCNC(N)=O)NC(=O)[C@@H](NC(=O)[C@H](CCCCN)NC(=O)C(C)C)C(C)C)cc1)C(C)C` [Example 7, N˜2˜-(2-Methylpropanoyl)-L-lysyl-L-valyl-N-{4-[(8S,11S,12R)-11-[(2S)-butan-2-yl]-12-(2-{(2S)-2-[(1R,2R)-1-methoxy-2-methyl-3-oxo-3-{[(1S)-2-phenyl-1-(1,3-thiazol-2-yl)ethyl]amino}propyl]pyrrolidin-1-yl}-2-oxoethyl)-5,5,10-trimethyl-3,6,9-trioxo-8-(propan-2-yl)-2,13-dioxa-4,7,10-triazatetradec-1-yl]phenyl}-N˜5˜-carbamoyl-L-ornithinamide] (Isobutyryl-KV[Cit][PABC][Aib]V[Dil][Dolaproine]-Doe): for the setting “attachment position L11B”, the “DAR after plasma incubation” value was 0, the “Conjugate stability (%)” value is recorded as 0% and the DAR worked out at 1.51.
Turning to `CC[C@H](C)[C@@H]([C@@H](CC(=O)N1CCC[C@H]1[C@H](OC)[C@@H](C)C(=O)N[C@@H](Cc1ccccc1)c1nccs1)OC)N(C)C(=O)[C@@H](NC(=O)C(C)(C)NC(=O)OCc1ccc(NC(=O)[C@H](CCCNC(N)=O)NC(=O)[C@@H](NC(=O)[C@H](CCCCN)NC(=O)CO)C(C)C)cc1)C(C)C` [Example 25, N˜2˜-(hydroxyacetyl)-L-lysylvalyl-N-{4-[(8S,11S,12R)-11-[(2S)-butan-2-yl]-12-(2-{(2S)-2-[(1R,2R)-1-methoxy-2-methyl-3-oxo-3-{[(1S)-2-phenyl-1-(1,3-thiazol-2-yl)ethyl]amino}propyl]pyrrolidin-1-yl}-2-oxoethyl)-5,5,10-trimethyl-3,6,9-trioxo-8-(propan-2-yl)-2,13-dioxa-4,7,10-triazatetradec-1-yl]phenyl}-N˜5˜-carbamoyl-L-ornithinamide] (Glycolyl-KV[Cit][PABC][Aib]V[Dil][Dolaproine]-Doe), under “attachment position L11B”, the “Conjugate stability (%)” value is 84% and the DAR came out at 1.91.
